The binders below were run against T1, endogenous p97 purified from rat liver cytosol, biotinylated (rat (endogenous in rat liver), UniProt P46462 1-806, biotinylated using EZ-Link Sulfo-NHS-LC-biotin (sites not given)) (assay: pull-down; endogenous rat liver p97, biotinylated, immobilised on streptavidin beads; His-tagged VCIP135 or its fragments or mutants in solution; 1 mM AMP-PNP (Figs 1A, 5C, 5D: the indicated nucleotide, 1 mM); 20 mM HEPES, 100 mM KCl, 1 mM MgCl2, 1 mM DTT, 0.5% CHAPS, 10% glycerol, pH 7.4; Western blot with antibodies to p97 and His-tag). Conditions: both partners purified.
T1 construct: p97 ATPase (VCP), endogenous protein purified from rat liver cytosol; Held on streptavidin beads through the biotin; also called p97ATPase; VCP; source: purified from rat liver cytosol
T1 sequence (P46462 whole entry, the tested form may be a part): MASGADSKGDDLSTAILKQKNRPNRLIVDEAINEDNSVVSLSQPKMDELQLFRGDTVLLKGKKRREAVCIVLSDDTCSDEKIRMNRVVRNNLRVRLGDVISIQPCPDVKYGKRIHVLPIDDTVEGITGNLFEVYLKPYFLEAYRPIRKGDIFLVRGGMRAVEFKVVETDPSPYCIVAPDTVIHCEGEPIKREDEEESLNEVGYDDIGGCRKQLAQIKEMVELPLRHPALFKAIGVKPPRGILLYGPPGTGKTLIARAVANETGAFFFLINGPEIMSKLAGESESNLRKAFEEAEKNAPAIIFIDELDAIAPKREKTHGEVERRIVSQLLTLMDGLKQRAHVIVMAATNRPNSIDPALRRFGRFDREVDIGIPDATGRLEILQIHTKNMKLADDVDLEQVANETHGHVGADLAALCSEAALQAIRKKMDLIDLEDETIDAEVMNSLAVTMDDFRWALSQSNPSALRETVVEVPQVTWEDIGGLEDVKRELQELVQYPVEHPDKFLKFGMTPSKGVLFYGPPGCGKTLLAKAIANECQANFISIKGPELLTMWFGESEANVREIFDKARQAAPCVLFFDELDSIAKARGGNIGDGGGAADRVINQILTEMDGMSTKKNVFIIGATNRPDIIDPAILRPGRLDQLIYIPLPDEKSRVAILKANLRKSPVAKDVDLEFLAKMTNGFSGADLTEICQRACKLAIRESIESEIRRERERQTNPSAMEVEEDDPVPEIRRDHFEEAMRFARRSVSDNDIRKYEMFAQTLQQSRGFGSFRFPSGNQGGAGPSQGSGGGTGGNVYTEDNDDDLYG

Binder | binding result
His-tagged VCIP135(903-1053) (domain or fragment, rat, UniProt Q8CF97 903-1053, looked up) GEDVWSYAKGLPHMFQQGGVFYNIMKKTMGMADGKHCTFPHLPGKTFVYNASEDRLELCVDAAGHFPIGPDVEDLVKEAVSQVRAEATTRSRESSPSHGLLKLGSGGVVKKKSEQLHNVTAFQGKGHSLGTASSNPHMDPRARETLAVRKH | binds
His-tagged VCIP135(1-390) (domain or fragment, rat, UniProt Q8CF97 1-390, looked up, VCIP135, rat, residues 1-390) MSQPPPPPPLPPPPPPPEAPQTSSSLAAAATPGGLSKRRDRRILSGSCPDPKCQARLFFPASGSVSIECTECGQRHEQQQLLGVEEVTDPDVVLHNLLRNALLGVTGAPKKNTELVKVMGLSNYHCKLLSPILARYGMDKQTGRAKLLRDMNQGELFDCALLGDRAFLIEPEHVNTVGYGKDRSGSLLYLHDTLEDIKRANKSQECLIPVHVDGDGHCLVHAVSRALVGRELFWHALRENLKQHFQQHLARYQALFHDFIDAAEWEDIINECDPLFVPPEGVPLGLRNIHIFGLANVLHRPIILLDSLSGMRSSGDYSATFLPGLIPAEKCTGRDGHLNKPICIAWSSSGRNHYIPLVGIKGAALPKLPMNLLPKAWGVPQDLIKKYIKL | binds
His-tagged VCIP135(1-743) (domain or fragment, rat, UniProt Q8CF97 1-743, looked up, also called N-terminal half of VCIP135) MSQPPPPPPLPPPPPPPEAPQTSSSLAAAATPGGLSKRRDRRILSGSCPDPKCQARLFFPASGSVSIECTECGQRHEQQQLLGVEEVTDPDVVLHNLLRNALLGVTGAPKKNTELVKVMGLSNYHCKLLSPILARYGMDKQTGRAKLLRDMNQGELFDCALLGDRAFLIEPEHVNTVGYGKDRSGSLLYLHDTLEDIKRANKSQECLIPVHVDGDGHCLVHAVSRALVGRELFWHALRENLKQHFQQHLARYQALFHDFIDAAEWEDIINECDPLFVPPEGVPLGLRNIHIFGLANVLHRPIILLDSLSGMRSSGDYSATFLPGLIPAEKCTGRDGHLNKPICIAWSSSGRNHYIPLVGIKGAALPKLPMNLLPKAWGVPQDLIKKYIKLEEDGGCVIGGDRSLQDKYLLRLVAAMEEVFMDKHGIHPSLVADVHQYFYRRTGVIGVQPEEVTAAAKKAVMDNRLHKCLLCGALSELHVPPEWLAPGGKLYNLAKSTHGQLRPDKNYSFPLNNLVCSYDPVKDVLLPDYGLSNLTACNWCHGTSVRRVRGDGSIVYLDGDRTNSRSTGGKCGCGFKHFWEGKEYDNLPEAFPITLEWGGRVVRETVYWFQYESDPSLNSNVYDVAMKLVTKHFPGEFGSEILVQKVVHTILHQTAKKNPDDYTPVNIDGAHAQRIGDVQGQELESQLPTKIILTGQKTKTLHKEELNMSKTERTIQQNITEQASVMQKRKTEKLKQEQKGQPR | binds
His-tagged VCIP135(744-1221) (domain or fragment, rat, UniProt Q8CF97 744-1221, looked up, also called C-terminal half of VCIP135) TVSPSTIRDGPSSAPATPTKAPYSPTTSKEKKIRITTNDGRQSMVTLKSSTTFFELQESIAREFNIPPYLQCIRYGFPPKELMPPQAGMEKEPVPLQHGDRITIEILKGKAEGGPSTAAHSAHTVRQEEIAVTGKLSSKELQEQADKEMYSLCLLATLMGEDVWSYAKGLPHMFQQGGVFYNIMKKTMGMADGKHCTFPHLPGKTFVYNASEDRLELCVDAAGHFPIGPDVEDLVKEAVSQVRAEATTRSRESSPSHGLLKLGSGGVVKKKSEQLHNVTAFQGKGHSLGTASSNPHMDPRARETLAVRKHNTGTDFSNSSIKTEPPVFTAASSNSELIRIAPGVVTMRDGRQIDPDVVEAQRKKLQEMVSSIQASMDKHLRDQSTEQTPSDLSQRKVEAVSSSVRPGNLQTGLPESFSLTGGTENLNTETTDSRVADVLGAAFATRSKAQKENSMEEPEEMDSQDAETTNTTEPMDHS | binds

Source: article PMC10805704, “VCIP135 associates with both the N- and C-terminal regions of p97 ATPase” (The Journal of Biological Chemistry, 2023)
